# Data published in patent CN111072775A (OLYMVAX BIOPHARMACEUTICALS INC; UNIV ARMY MEDICAL, dated 2020).
# Changes are numbered by the printed parent chain.
# T1: MntC蛋白 (锰离子转运蛋白C亚单位, 重组MntC蛋白) (金黄色葡萄球菌 (Staphylococcus aureus))
# T1 construct: Recombinant MntC used as immunogen and as ELISA coating antigen; also called MntC重组蛋白; MntC蛋白标准品
# T1 chain: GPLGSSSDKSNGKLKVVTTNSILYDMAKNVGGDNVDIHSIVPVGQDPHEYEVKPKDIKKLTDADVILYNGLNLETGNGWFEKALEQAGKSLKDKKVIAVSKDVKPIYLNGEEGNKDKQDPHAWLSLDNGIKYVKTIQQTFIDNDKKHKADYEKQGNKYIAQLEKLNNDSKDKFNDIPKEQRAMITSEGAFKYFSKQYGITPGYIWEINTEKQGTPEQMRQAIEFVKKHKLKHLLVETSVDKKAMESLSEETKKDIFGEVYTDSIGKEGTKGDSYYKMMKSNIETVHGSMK
# B1: HRP标记的抗体3F6 (antibody, V domains shown)
# VH: VQLQQSGPSLVKPSQTLSLTCSVTGDSITNGYWNWIRKFPGNKLEYMGYISYSGTTYYNPSLKSRISITRDTSKNQYYLQLNSVTTEDTATYYCSRIRPYRHLGFDYWGQGTTVTVSS
# VL: DIVMTQTPASLAVSLGQRATISCKASQSVDYGGDSYMNWYQQKPGQPPKLLIYAASNLESGIPARFSGSGSGTDFTLNIHPVEEEDGATYYCQQSNEDPWTFGGGTKLEIK
# modifications: HRP label by the sodium periodate oxidation method; chain and site not stated
# notes: also called HRP标记抗体 (3F6)
# B2: HRP标记的抗体3C10 (antibody, V domains shown)
# VH: B1 VH with Q2K, Q5E
# VL: B1 VL with T7S, P8T
# modifications: HRP label by the sodium periodate oxidation method; chain and site not stated
# notes: also called HRP标记抗体 (3C10); 酶结合物(抗体3C10)
# Target: T1, MntC蛋白 (锰离子转运蛋白C亚单位, 重组MntC蛋白)
# Assay: ELISA on MntC with HRP-labelled antibody
row,Binder,binding result
1,B1,binds
2,B2,binds
